In patent publication US20230322943A1 (SUNSHINE GUOJIAN PHARMACEUTICAL SHANGHAI, published 2023):

How the values were obtained:
[1] = target: T1, human full-length CD38 on cells (human, UniProt P28907 1-300); assay: flow cytometry on CHOS-CD38 cells, PE secondary antibody
T1 construct: whole, on cells; One molecule is used for cell-surface human CD38; also called CD38 on CHOS-CD38 cells; CD38 on the surface of Daudi cells
Text: (§1) Flow cytometry was used to detect the binding activity of murine antibodies to recombinant high-expression cell line CHOS-CD38 cells and tumor cell line DND-41 cells. The specific methods were as follows:
(§2) CHOS-CD38 and DND-41 cells were collected, centrifuged to remove the cell culture medium, and the cells were washed twice with PBS buffer. The cells were counted and diluted with 1%BSA FACS buffer to 2^{∗}10⁶ cells/ml. The cells were spread into round-bottom 96-well plate for use. The antibody to be tested was diluted with 1%BSA buffer for 8 gradients and added to the round-bottom plate with the above cells. The plate was incubated at 4° C. for 1 hour. After centrifugation, the supernatant was removed and the plate was washed 3 times with 1% BSA FACS buffer. 100 µl donkey anti-mouse PE fluorescent secondary antibody or goat anti-human PE fluorescent secondary antibody was added to each well at a ratio of 1:300 (see the instructions for fluorescent secondary antibody for details), and the plate was incubated at 4° C. for 1 hour. The samples were washed for 3 times with 1% BSA FACS buffer and then re-suspended with 1% BSA FACS buffer at 200 µl/well. FACScalibur BD was used to analyze the samples.

[2] = target: T1, human full-length CD38 on cells; assay: flow cytometry on DND-41 tumor cells, PE secondary antibody
Text: as §1, §2

human CD38-Fc protein = target: T2, human CD38-Fc protein (human, UniProt P28907 43-300); assay: indirect ELISA, CD38-Fc coated at 1 ug/ml, HRP goat anti-mouse IgG
T2 construct: extracellular domain; Recombinant Fc-tagged extracellular segment of human CD38; not shown: Fc tag

[3] = target: T1, human full-length CD38 on cells; assay: flow cytometry on Daudi cells (MFI), FITC goat anti-human Fc secondary antibody
Experimental: After Daudi cells were counted, PBS solution containing 1% BSA was used to inoculate the cells into 96-well round-bottom culture plates with 2×10⁵ cells per well. 50 µl anti-CD38 antibody in gradient dilution with PBS solution was added to the 96-well plate. The plate was incubated at room temperature for 1 h, then it was centrifuged to discard the supernatant. Then the cells was washed with PBS twice. FITC-labeled goat anti-human (Fc-Speicific) antibody was added (1:1000 diluted with PBS containing 1% BSA) and the plate was incubated at room temperature for half an hour. The cells was centrifuged and washed, then the Mean Fluorescence Intensity (MFI) of the FITC channel was detected by flow cytometry. The flow cytometer software was used to process the experimental data and the mean fluorescence intensity was calculated. The GraphPad Prism6 was used for data analysis and mapping, and EC50 was calculated.

[4] = target: T1, human full-length CD38 on cells; assay: cell-based or functional assay

EC50 [1] [µg/mL]	EC50 [2] [µg/mL]	EC50 (human CD38-Fc protein) [nM]	EC50 [3] [nM]	ADCC EC50 (Daudi target cells, human PBMC effectors, LDH release) [4] [nM]	apoptosis induction EC50 (Daudi cells, Annexin V-FITC) [4] [nM]	Binder
0.687	0.134	0.173				murine antibody 50G12 (antibody, V domains shown, Mouse monoclonal antibody purified from hybridoma supernatant by Protein G; also called 50Ga12; 50G12 murine antibody) VH: QVQLQQSGAELARPGASVKLSCKASGYTFNTYWMQWVKQRPGQGLEWIGAIYPGDGDITYNQKFKGKATLTADKSSNTAYMHLSSLASEDSAVYYCAREGYYYGGALDYWGQGTSVTVSS VL: QIFLTQSPAIMSASLGERVTMTCTASSSVSSSYLHWYQQKPGSPPKLWMYGTSNLASGVPPRFSGSGSGTSYSLTISSMEAEDAATYYCHRYHRSPWTFGGGTKLEIK
			0.528			50G12-Chimeric (antibody, human IgG1, V domains shown, Murine 50G12 VH joined to the human IgG1 heavy chain constant region and murine 50G12 VL joined to the human Kappa chain constant region; also called 50G12-Chimeic; 50G12-Chi-HC / 50G12-Chi-LC) VH: QVQLQQSGAELARPGASVKLSCKASGYTFNTYWMQWVKQRPGQGLEWIGAIYPGDGDITYNQKFKGKATLTADKSSNTAYMHLSSLASEDSAVYYCAREGYYYGGALDYWGQGTSVTVSS VL: QIFLTQSPAIMSASLGERVTMTCTASSSVSSSYLHWYQQKPGSPPKLWMYGTSNLASGVPPRFSGSGSGTSYSLTISSMEAEDAATYYCHRYHRSPWTFGGGTKLEIK
			0.605	0.106	0.568	50G12-Humanized (antibody, human IgG1, kappa, V domains shown, Human IgG1 / Kappa; also called humanized antibody 50G12-Humanized; 50G12-Hu-HC / 50G12-Hu-LC) VH: QVQLVQSGAEVKKPGASVKVSCKASGYTFNTYWMQWVRQAPGQGLEWMGAIYPGDGDITYNQKFKGRVTLTADKSTSTVYMELSSLRSEDTAVYYCAREGYYYGGALDYWGQGTLVTVSS VL: DIQMTQSPSSLSASVGDRVTITCTASSSVSSSYLHWYQQKPGKAPKLWMYGTSNLASGVPSRFSGSGSGTDYTLTISSLQPEDFATYYCHRYHRSPWTFGQGTKVEIKR
